target: NusA-SKK (Escherichia coli, UniProt P0AFF6 132-348); assay: fluorescence anisotropy
Sequence (P0AFF6 132-348): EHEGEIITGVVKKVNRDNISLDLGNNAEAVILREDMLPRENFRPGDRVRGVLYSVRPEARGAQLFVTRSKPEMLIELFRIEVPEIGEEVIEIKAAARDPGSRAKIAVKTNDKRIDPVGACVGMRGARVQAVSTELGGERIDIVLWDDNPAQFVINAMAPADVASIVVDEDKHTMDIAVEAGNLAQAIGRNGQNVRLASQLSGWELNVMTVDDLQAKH

Binder	Kd	binding result
ACAAUUUA (ssRNA) [rrn spacer (III)]	71 ± 3.3 µM	–
CGCUCUUACACAUUCCA (ssRNA) [nutR boxA-spacer]	126 ± 4 µM	–
CUCUCUUACACAUUCCA (ssRNA) [nutR boxA5-spacer]	124 ± 7 µM	–
CGCUCUUA (ssRNA) [nutR boxA (same sequence as nutL boxA)]	–	no binding
AAAAUUAA (ssRNA) [nutL spacer]	24 ± 2.2 µM	–
CACUGCUCUUUAACAAUUUA (ssRNA) [rrn cac-boxA-spacer]	14 ± 0.2 µM	–
CGCUCUUAAAAAUUAA (ssRNA) [nutL boxA-spacer]	71 ± 4 µM	–
CGCUAUUACACAUUCCA (ssRNA) [nutR boxA16-spacer]	106 ± 4 µM	–
CACAUUCCA (ssRNA) [nutR spacer]	137 ± 17 µM	–
CGCUCUUAAAAAGGAA (ssRNA) [nutL boxA-spacer (mut)]	–	no binding
AGCCCUGAAAAAGGGC (structured_RNA) [nutR boxB]	–	no binding
